Source: patent US20020004209A1, “Use of SLIM3 for binding to molecules” (Schering Aktiengesellschaft Patents, priority 1999, published 2002)

How the values were obtained:
co-activator TIF2 = co-activator TIF2 (Homo sapiens, UniProt Q15596); assay: GST-protein-interaction test; type: binding; details: in vitro
Description: (§1) To measure the interaction between SLIM3 and the nuclear receptors in vitro, the GST-Slim3 fusion protein was immobilized by means of glutathione-sepharose and incubated with several in vitro-translated ^35S-methionine-labeled nuclear receptors. The complete human androgen receptor binds to GST-Slim3. This in vitro interaction is not ligand-dependent under standard conditions. The complete human androgen receptor binds specifically to GST-Slim3, but not to the GST protein alone. To safeguard the specificity between the human androgen receptor and SLIM3, another GST-protein-interaction test was carried out (GST-protein-interaction assay). This test is described in E. PFITZNER et al. (1995) Functional Antagonism Between the Retinoid Acid Receptor and the Viral Transactivator BZLF1 is Mediated by Protein-Protein Interactions. Proc Natl Acad Sci USA Vol. 92, pp. 12265-12269.

estrogen receptors alpha = target: T1, estrogen receptors alpha (Homo sapiens, UniProt P03372); assay: GST-protein-interaction test; type: binding; details: in vitro
T1 construct: made in house; host or cells: in vitro translation, 35S-methionine labelled
T1 sequence (P03372 1-595): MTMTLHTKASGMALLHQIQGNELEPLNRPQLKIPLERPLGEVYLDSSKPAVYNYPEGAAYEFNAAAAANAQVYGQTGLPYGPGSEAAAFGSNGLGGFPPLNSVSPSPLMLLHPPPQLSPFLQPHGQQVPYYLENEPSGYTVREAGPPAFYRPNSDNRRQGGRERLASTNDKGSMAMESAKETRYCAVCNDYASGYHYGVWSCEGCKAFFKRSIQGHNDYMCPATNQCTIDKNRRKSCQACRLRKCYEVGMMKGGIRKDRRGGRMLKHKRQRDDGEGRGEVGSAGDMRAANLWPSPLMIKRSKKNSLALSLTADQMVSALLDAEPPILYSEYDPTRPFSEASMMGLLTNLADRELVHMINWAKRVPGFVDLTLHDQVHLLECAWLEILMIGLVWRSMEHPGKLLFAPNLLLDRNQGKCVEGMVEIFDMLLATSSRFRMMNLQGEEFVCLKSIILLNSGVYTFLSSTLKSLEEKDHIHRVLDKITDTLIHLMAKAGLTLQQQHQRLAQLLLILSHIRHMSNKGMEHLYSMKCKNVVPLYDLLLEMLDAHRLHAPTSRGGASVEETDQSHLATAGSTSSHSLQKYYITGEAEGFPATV
Description: as §1

DNA = DNA binding
androgen receptor = target: T2, androgen receptor (Homo sapiens, UniProt P10275); assay: androgen receptor co-activation, MMTV-LUC or proteasin-Luc reporter, transient transfection; type: cell-based; details: 293 cells; with R1881; increasing amount of SLIM3-expression plasmid
T2 construct: expressed in transfected cells; host or cells: 293 cells
T2 sequence (P10275 1-920): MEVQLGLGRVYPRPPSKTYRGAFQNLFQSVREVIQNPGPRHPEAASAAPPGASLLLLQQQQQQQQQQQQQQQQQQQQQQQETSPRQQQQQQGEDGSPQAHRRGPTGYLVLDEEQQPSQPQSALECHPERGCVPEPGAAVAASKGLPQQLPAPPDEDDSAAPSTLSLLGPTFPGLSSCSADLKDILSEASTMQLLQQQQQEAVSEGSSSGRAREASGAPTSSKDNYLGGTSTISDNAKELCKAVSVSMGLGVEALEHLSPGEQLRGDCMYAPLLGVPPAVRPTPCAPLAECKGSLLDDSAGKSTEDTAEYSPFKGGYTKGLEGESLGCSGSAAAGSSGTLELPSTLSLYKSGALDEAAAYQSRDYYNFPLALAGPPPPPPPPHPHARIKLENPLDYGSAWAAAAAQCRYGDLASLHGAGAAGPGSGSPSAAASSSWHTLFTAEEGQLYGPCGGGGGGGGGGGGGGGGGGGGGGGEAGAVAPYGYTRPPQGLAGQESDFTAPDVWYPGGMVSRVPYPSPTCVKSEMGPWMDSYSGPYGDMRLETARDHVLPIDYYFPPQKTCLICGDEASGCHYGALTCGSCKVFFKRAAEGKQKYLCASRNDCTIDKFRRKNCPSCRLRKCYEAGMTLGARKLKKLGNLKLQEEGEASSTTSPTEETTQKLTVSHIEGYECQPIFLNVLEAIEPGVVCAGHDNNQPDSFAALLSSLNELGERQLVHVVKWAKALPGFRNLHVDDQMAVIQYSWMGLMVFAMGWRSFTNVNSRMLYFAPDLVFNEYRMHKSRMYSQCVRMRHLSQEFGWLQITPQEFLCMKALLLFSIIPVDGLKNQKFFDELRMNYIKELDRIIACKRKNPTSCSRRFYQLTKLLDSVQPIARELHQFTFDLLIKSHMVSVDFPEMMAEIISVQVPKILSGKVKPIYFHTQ
T2 sequence (Q14192 1-279 partner): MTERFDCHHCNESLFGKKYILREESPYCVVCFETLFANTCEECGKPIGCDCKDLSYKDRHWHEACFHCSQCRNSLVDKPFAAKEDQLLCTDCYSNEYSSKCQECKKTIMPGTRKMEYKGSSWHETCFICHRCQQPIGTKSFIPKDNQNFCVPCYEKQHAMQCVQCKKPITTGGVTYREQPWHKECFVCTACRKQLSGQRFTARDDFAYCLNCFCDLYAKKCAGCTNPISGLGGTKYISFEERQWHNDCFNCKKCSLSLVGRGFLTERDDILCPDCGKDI

Chain of co-activator TIF2 (Q15596 whole entry, one chain of several, the tested form may be a part): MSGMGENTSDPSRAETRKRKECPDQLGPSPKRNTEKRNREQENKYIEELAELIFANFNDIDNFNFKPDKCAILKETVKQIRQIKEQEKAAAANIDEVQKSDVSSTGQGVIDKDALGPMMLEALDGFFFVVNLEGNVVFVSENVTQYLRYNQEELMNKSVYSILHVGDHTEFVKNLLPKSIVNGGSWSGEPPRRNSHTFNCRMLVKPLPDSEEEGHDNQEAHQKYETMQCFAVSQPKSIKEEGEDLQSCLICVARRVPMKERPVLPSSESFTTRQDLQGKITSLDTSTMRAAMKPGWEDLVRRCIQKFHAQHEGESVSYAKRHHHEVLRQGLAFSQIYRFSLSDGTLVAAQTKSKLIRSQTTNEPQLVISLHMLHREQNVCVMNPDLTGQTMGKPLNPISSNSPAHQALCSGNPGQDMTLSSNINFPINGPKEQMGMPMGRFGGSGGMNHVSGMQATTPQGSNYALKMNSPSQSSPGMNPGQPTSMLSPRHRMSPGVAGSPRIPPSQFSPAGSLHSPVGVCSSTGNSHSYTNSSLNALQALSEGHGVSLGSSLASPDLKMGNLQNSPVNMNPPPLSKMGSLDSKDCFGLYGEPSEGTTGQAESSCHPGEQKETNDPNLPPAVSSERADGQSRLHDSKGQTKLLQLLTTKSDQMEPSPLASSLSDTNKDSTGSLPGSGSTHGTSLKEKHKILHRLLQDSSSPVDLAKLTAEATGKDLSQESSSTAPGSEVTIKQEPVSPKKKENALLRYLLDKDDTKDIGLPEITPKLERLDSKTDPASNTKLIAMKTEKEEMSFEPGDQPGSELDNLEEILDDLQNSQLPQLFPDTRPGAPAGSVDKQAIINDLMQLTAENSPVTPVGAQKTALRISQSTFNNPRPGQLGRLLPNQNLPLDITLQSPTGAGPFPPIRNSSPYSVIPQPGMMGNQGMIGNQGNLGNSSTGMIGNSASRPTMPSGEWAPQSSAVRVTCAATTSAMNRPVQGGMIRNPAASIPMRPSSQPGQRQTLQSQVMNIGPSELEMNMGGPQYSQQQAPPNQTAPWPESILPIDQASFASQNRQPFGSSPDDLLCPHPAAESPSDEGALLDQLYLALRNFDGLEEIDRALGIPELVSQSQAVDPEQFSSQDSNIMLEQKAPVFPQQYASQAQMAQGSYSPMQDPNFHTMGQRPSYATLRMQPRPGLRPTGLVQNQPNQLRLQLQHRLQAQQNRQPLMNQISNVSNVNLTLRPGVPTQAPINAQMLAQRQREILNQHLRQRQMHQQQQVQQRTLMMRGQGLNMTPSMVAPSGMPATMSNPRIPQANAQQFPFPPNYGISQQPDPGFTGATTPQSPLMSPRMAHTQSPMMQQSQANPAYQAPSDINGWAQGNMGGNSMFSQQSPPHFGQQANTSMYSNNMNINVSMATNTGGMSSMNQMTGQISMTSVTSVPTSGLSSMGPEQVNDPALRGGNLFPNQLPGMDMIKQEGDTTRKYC

interaction with co-activator (co-activator TIF2): interacts
bond to SLIM3 (estrogen receptors alpha): no bond
binding to DNA (DNA): does not bind
additional super-induction of the reporter gene (androgen receptor): three-fold to five-fold
Substance: SLIM3: LIM-domain protein of 279 amino acids, co-activator for nuclear receptors AR and ERβ
